Test results: the supplement of paper PMC7877785
± gives the uncertainty stated by the source.

Assay: self-splicing fitness, log relative to wild type (ln ratio); higher = more splicing; Tetrahymena group I intron in knt gene, E. coli kanamycin selection, DiMSum; sequences stand for … in CUCUCU…GGAGGGAAAAGUUAUCAGGCAUGCACCUGGUAGCUAGUCUUUAAACCAAUAGAUUGCAUCGGUUUAAAAGGCAAGACCGUCAAAUUGCGGGAAAGGGGUCAACAGCCGUUCAGUACCAAGUCUCAGGGGAAACUUUGAGAUGGCCUUGCAAAGGGUAUGGUAAUAAGCUGACGGACAUGGUCCUAACCACGCAGCCAAGUCCUAAGUCAACAGAUCUUCUGUUGAUAUGGAUGCAGUUCACAGACUAAAUGUCGGUCGGGGAAGAUGUAUUCUUCUCAUAAGAUAUAGUCGGACCUCUCCUUAAUGGGAGCUAGCGGAUGAAGUGAUGCAACACUGGAGCCGCUGGGAACUAAUUUGUAUGCGAAAGUAUAUUGAUUAGUUUUGGAGUACUCGUGGUCG
In short: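 Colonies from six replicate transformations of E. coli BL21(DE3) were pooled and amplicon-sequenced on an Illumina HiSeq 2500. The library placed an intron with all eight P1ex-region nucleotides randomised inside the knt kanamycin-resistance gene on pET-22b(+), and cells grew overnight at 37°C or 30°C on LB agar with or without 25 μg/mL kanamycin (plus 100 μg/mL carbenicillin, 50 μM IPTG, 0.2% rhamnose). Fitness is the DiMSum error-weighted combination of wild-type-normalised replicate fold changes, kanamycin versus none.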

Sequence | self-splicing fitness (ln) (30 °C) | self-splicing fitness (ln) (37 °C)
CACUAGCAAUAUUACGGGUC | -2.36 ± 0.14 | -2.27 ± 0.2
CACUAGCAAUAUUACGGUCU | -1.55 ± 0.078 | -0.782 ± 0.11
CACUAGCAAUAUUACGUAAA | -3.48 ± 0.18 | -2.61 ± 0.2
CACUAGCAAUAUUACGUAAC | -3.68 ± 0.27 | -1.88 ± 0.24
CACUAGCAAUAUUACGUAUA | -3.17 ± 0.36 | -1.5 ± 0.23
CACUAGCAAUAUUACGUGCU | -3.69 ± 0.2 | -2.55 ± 0.15
CACUAGCAAUAUUACGUUUA | -4.15 ± 0.23 | -2.68 ± 0.17
CAGAAGCAAUAUUACGAAAC | -4.4 ± 0.46 | -2.18 ± 0.32
CAGAAGCAAUAUUACGAAUG | -2.6 ± 0.14 | -0.683 ± 0.13
CAGAAGCAAUAUUACGACAA | -2.84 ± 0.36 | -1.88 ± 0.31
CAGAAGCAAUAUUACGACCU | -2.86 ± 0.4 | 0.0264 ± 0.23
CAGAAGCAAUAUUACGCAGU | -2.53 ± 0.19 | -3.48 ± 0.23
CAGAAGCAAUAUUACGCCCU | – | -1.83 ± 0.43
CAGAAGCAAUAUUACGCCUC | – | -0.543 ± 0.28
CAGAAGCAAUAUUACGCUUC | – | -3.54 ± 0.4
CAGAAGCAAUAUUACGGAAA | – | -2.45 ± 0.36
CAGAAGCAAUAUUACGGACA | -1.93 ± 0.16 | -0.876 ± 0.13
CAGAAGCAAUAUUACGGCAC | -3.44 ± 0.41 | -1.87 ± 0.32
CAGAAGCAAUAUUACGGCCC | -2.98 ± 0.44 | –
CAGAAGCAAUAUUACGGCUA | 0.172 ± 0.11 | -0.0647 ± 0.084
CAGAAGCAAUAUUACGGCUU | -3.46 ± 0.21 | -3.66 ± 0.29
CAGAAGCAAUAUUACGGGGC | -3.13 ± 0.17 | -2.89 ± 0.27
CAGAAGCAAUAUUACGGUGA | -2.21 ± 0.096 | -1.13 ± 0.1
CAGAAGCAAUAUUACGGUUU | -2.93 ± 0.093 | -2.83 ± 0.12
CAGAAGCAAUAUUACGUACC | -2.33 ± 0.24 | -1.55 ± 0.27
CAGAAGCAAUAUUACGUAGC | -3.8 ± 0.27 | -3.32 ± 0.28
CAGAAGCAAUAUUACGUCCC | -2.92 ± 0.3 | -1.49 ± 0.28

Sequence | self-splicing fitness (ln) (30 °C) | self-splicing fitness (ln) (37 °C)
CAGAAGCAAUAUUACGUCGG | -1.61 ± 0.14 | -0.979 ± 0.2
CAGAAGCAAUAUUACGUCUG | -3.35 ± 0.16 | -3.09 ± 0.21
CAGAAGCAAUAUUACGUCUU | -1.7 ± 0.089 | -0.306 ± 0.11
CAGAAGCAAUAUUACGUUAC | – | -2.72 ± 0.2
CAGAAGCAAUAUUACGUUAU | -3.44 ± 0.35 | -2.75 ± 0.28
CAGAAGCAAUAUUACGUUUA | -3.13 ± 0.18 | -1.95 ± 0.12
CAGCAGCAAUAUUACGAAUU | -4.16 ± 0.27 | -2.23 ± 0.23
CAGCAGCAAUAUUACGAGCC | – | -1.48 ± 0.23
CAGCAGCAAUAUUACGAUGU | -4.21 ± 0.22 | -2.6 ± 0.15
CAGCAGCAAUAUUACGAUUG | -2.36 ± 0.093 | -0.731 ± 0.09
CAGCAGCAAUAUUACGCACU | -0.834 ± 0.1 | -1.8 ± 0.12
CAGCAGCAAUAUUACGCCCU | -1.89 ± 0.1 | 0.0797 ± 0.13
CAGCAGCAAUAUUACGCCGG | -0.792 ± 0.09 | -0.31 ± 0.098
CAGCAGCAAUAUUACGCCUG | -3.7 ± 0.22 | -2.35 ± 0.21
CAGCAGCAAUAUUACGCGAU | -3.91 ± 0.22 | -1.83 ± 0.17
CAGCAGCAAUAUUACGCGGC | -4.03 ± 0.27 | -2.95 ± 0.18
CAGCAGCAAUAUUACGCUAU | -2.47 ± 0.27 | -2 ± 0.18
CAGCAGCAAUAUUACGCUCG | -1.95 ± 0.16 | -0.385 ± 0.21
CAGCAGCAAUAUUACGCUGA | -3.02 ± 0.22 | -2.09 ± 0.18
CAGCAGCAAUAUUACGGAGG | -1.19 ± 0.082 | -0.627 ± 0.12
CAGCAGCAAUAUUACGGCAU | -0.874 ± 0.074 | -0.81 ± 0.096
CAGCAGCAAUAUUACGGCCC | -0.505 ± 0.15 | -0.0529 ± 0.23
CAGCAGCAAUAUUACGGGCA | -2.11 ± 0.095 | -1.07 ± 0.099
CAGCAGCAAUAUUACGGGUU | -4.98 ± 0.26 | -1.6 ± 0.13
CAGCAGCAAUAUUACGGUUU | -0.8 ± 0.062 | -0.225 ± 0.084
CAGCAGCAAUAUUACGUAAC | -4.17 ± 0.39 | -2.88 ± 0.32
CAGCAGCAAUAUUACGUACC | -3.85 ± 0.16 | -2.46 ± 0.16

Sequence | self-splicing fitness (ln) (30 °C) | self-splicing fitness (ln) (37 °C)
CAGCAGCAAUAUUACGUACU | -2.54 ± 0.24 | -2.5 ± 0.32
CAGCAGCAAUAUUACGUAGG | -0.47 ± 0.063 | -0.331 ± 0.094
CAGCAGCAAUAUUACGUCGG | -0.346 ± 0.063 | -0.0699 ± 0.09
CAGCAGCAAUAUUACGUGAA | -2.06 ± 0.075 | -0.955 ± 0.09
CAGCAGCAAUAUUACGUGAC | -3.41 ± 0.24 | -1.86 ± 0.19
CAGCAGCAAUAUUACGUGAG | -0.675 ± 0.06 | -0.267 ± 0.086
CAGCAGCAAUAUUACGUGGG | -3.53 ± 0.14 | -2.31 ± 0.11
CAGGAGCAAUAUUACGAACG | -0.795 ± 0.11 | -0.844 ± 0.13
CAGGAGCAAUAUUACGAAUG | -3.6 ± 0.2 | -2.76 ± 0.22
CAGGAGCAAUAUUACGACUU | -1.48 ± 0.19 | -0.618 ± 0.22
CAGGAGCAAUAUUACGCAUU | – | 0.11 ± 0.4
CAGGAGCAAUAUUACGCCGU | -4.09 ± 0.31 | -2.29 ± 0.29
CAGGAGCAAUAUUACGCGCA | -3.62 ± 0.3 | -1.62 ± 0.25
CAGGAGCAAUAUUACGGACG | -0.757 ± 0.1 | -0.376 ± 0.11
CAGGAGCAAUAUUACGGAGC | -2.2 ± 0.39 | -3.3 ± 0.47
CAGGAGCAAUAUUACGGGGA | -5.01 ± 0.38 | -3.47 ± 0.37
CAGGAGCAAUAUUACGUCGG | -0.734 ± 0.099 | -0.66 ± 0.13
CAGUAGCAAUAUUACGAAAA | -3.58 ± 0.47 | -1.8 ± 0.32
CAGUAGCAAUAUUACGAAUU | -3.34 ± 0.28 | –
CAGUAGCAAUAUUACGACUU | 0.0553 ± 0.058 | 0.35 ± 0.071
CAGUAGCAAUAUUACGAUAA | -3.55 ± 0.47 | –
CAGUAGCAAUAUUACGAUCA | -1.67 ± 0.24 | -2.04 ± 0.32
CAGUAGCAAUAUUACGAUGU | -2.34 ± 0.16 | -1.65 ± 0.18
CAGUAGCAAUAUUACGCAUA | -2.04 ± 0.2 | -1.59 ± 0.21
CAGUAGCAAUAUUACGCAUG | -2.31 ± 0.2 | -2.46 ± 0.29
